Source: PMC5081367

B1: wild type Lck (WT) [not stated] / receptor for activated C kinase 1 (RACK1), endogenous in NIH3T3 [mouse (endogenous in NIH3T3)] (parent)
chain 1: MGCVCSSNPEDDWMENIDVCENCHYPIVPLDSKISLPIRNGSEVRDPLVTYEGSLPPASPLQDNLVIALHSYEPSHDGDLGFEKGEQLRILEQSGEWWKAQSLTTGQEGFIPFNFVAKANSLEPEPWFFKNLSRKDAERQLLAPGNTHGSFLIRESESTAGSFSLSVRDFDQNQGEVVKHYKIRNLDNGGFYISPRITFPGLHDLVRHYTNASDGLCTKLSRPCQTQKPQKPWWEDEWEVPRETLKLVERLGAGQFGEVWMGYYNGHTKVAVKSLKQGSMSPDAFLAEANLMKQLQHPRLVRLYAVVTQEPIYIITEYMENGSLVDFLKTPSGIKLNVNKLLDMAAQIAEGMAFIEEQNYIHRDLRAANILVSDTLSCKIADFGLARLIEDNEYTAREGAKFPIKWTAPEAINYGTFTIKSDVWSFGILLTEIVTHGRIPYPGMTNPEVIQNLERGYRMVRPDNCPEELYHLMMLCWKERPEDRPTFDYLRSVLDDFFTATEGQYQPQP
chain 2: not shown

Variants of: B1
Experiment: co-immunoprecipitation (IP: RACK1, blot anti-Lck), quantified
Conditions: with receptor for activated C kinase 1 (RACK1), NIH3T3 Lck infectants, three independent experiments, mean ± SD, parent: 1, read off a plot

Row | Variant | screen value
1 | chain 1 R154K Y505F | 0.38
2 | chain 1 W97K Y505F | 0.12
3 | chain 1 Y505F | 1
